Reference: article PMC8167360

Target: X domain (Mac1) plus Mac2 (Mac1–2) of SARS-CoV Nsp3, purified (SARS-CoV (strain Frankfurt))
Experiment: ITC; […] ([…]) […] ([…]) […]; 25°C; VP-ITC; 20 mM Tris–HCl pH 8.5, 150 mM NaCl

B1: middle domain of human Paip1 (Paip1M), purified (domain or fragment)
chain: GSHMASMTGGQQMGRGSTLSEYVQDFLNHLTEQPGSFETEIEQFAETLNGCVTTDDALQELVELIYQQATSIPNFSYMGARLCNYLSHHLTISPQSGNFRQLLLQRCRTEYEVKDQAAKGDEVTRKRFHAFVLFLGELYLNLEIKGTNGQVTRADILQVGLRELLNALFSNPMDDNLICAVKLLKLTGSVLEDAWKEKGKMDMEEIIQRIENVVLDANCSRDVKQMLLKLVELRSS
- Kd: 18.6 µM
- dH: -3.73 kcal/mol
- stoichiometry N: 1.14
